37 sequences from the supplement of paper PMC7877785 can be followed below.

± gives the uncertainty stated by the source.

The nature of the series: self-splicing fitness, log relative to wild type (ln ratio); higher = more splicing; Tetrahymena group I intron in knt gene, E. coli kanamycin selection, DiMSum; sequences stand for … in CUCUCU…GGAGGGAAAAGUUAUCAGGCAUGCACCUGGUAGCUAGUCUUUAAACCAAUAGAUUGCAUCGGUUUAAAAGGCAAGACCGUCAAAUUGCGGGAAAGGGGUCAACAGCCGUUCAGUACCAAGUCUCAGGGGAAACUUUGAGAUGGCCUUGCAAAGGGUAUGGUAAUAAGCUGACGGACAUGGUCCUAACCACGCAGCCAAGUCCUAAGUCAACAGAUCUUCUGUUGAUAUGGAUGCAGUUCACAGACUAAAUGUCGGUCGGGGAAGAUGUAUUCUUCUCAUAAGAUAUAGUCGGACCUCUCCUUAAUGGGAGCUAGCGGAUGAAGUGAUGCAACACUGGAGCCGCUGGGAACUAAUUUGUAUGCGAAAGUAUAUUGAUUAGUUUUGGAGUACUCGUGGUCG
Summed up:
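DiMSum derived fitness as the error-weighted combination of fold changes across replicates, kanamycin versus no kanamycin, normalised to wild type. E. coli BL21(DE3) held the library, which randomised all eight P1ex-region intron nucleotides within the knt kanamycin-resistance gene on pET-22b(+). Six replicate transformations grew overnight at 37°C or 30°C on LB agar with or without 25 μg/mL kanamycin, also containing 100 μg/mL carbenicillin, 50 μM IPTG and 0.2% rhamnose, and pooled colonies were amplicon-sequenced on an Illumina HiSeq 2500.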

For the sequence GCUUAGCAAUAUUACGCGGC, the “self-splicing fitness (ln)” value was -2.35 ± 0.29 (30 °C) and -2.19 ± 0.37 (37 °C). The matching figures for AGAUAGCAAUAUUACGUGGA: -3.21 ± 0.25 and -2.37 ± 0.28. Take UGACAGCAAUAUUACGAAGG: the “self-splicing fitness (ln)” value by setting is: (30 °C) -3.84 ± 0.23; (37 °C) -1.36 ± 0.17. For GUAGAGCAAUAUUACGACGU, the “self-splicing fitness (ln)” value was -0.438 ± 0.16 (30 °C) and 0.352 ± 0.16 (37 °C).

Consider GCGCAGCAAUAUUACGACCC, for which the “self-splicing fitness (ln)” value by setting is: (30 °C) 0.715 ± 0.26; (37 °C) 0.34 ± 0.27. Consider UACCAGCAAUAUUACGAUUU, for which the “self-splicing fitness (ln)” value runs as follows: (30 °C) -1.25 ± 0.076; (37 °C) -0.288 ± 0.075.

Regarding AUAGAGCAAUAUUACGCGAG, the “self-splicing fitness (ln)” value runs as follows: (30 °C) -1.54 ± 0.11; (37 °C) -1.26 ± 0.14. Turning to UCUAAGCAAUAUUACGAUAU, the “self-splicing fitness (ln)” value (30 °C) is -3.99 ± 0.4 and the “self-splicing fitness (ln)” value (37 °C) is -2.61 ± 0.34. The matching figures for GGACAGCAAUAUUACGUCGA: 0.00434 ± 0.082 and 0.755 ± 0.12. With AGUGAGCAAUAUUACGCGCA, the “self-splicing fitness (ln)” value runs as follows: (30 °C) -2.29 ± 0.2; (37 °C) -2.38 ± 0.2. For GAGCAGCAAUAUUACGAGAA, the “self-splicing fitness (ln)” value is -2.25 ± 0.31 (30 °C) and -2.61 ± 0.36 (37 °C). The matching figures for GGGCAGCAAUAUUACGGCAG: -2.41 ± 0.13 and -0.994 ± 0.14. Consider GUAAAGCAAUAUUACGGAUU, for which the “self-splicing fitness (ln)” value is, setting by setting: (30 °C) -0.675 ± 0.079; (37 °C) -0.288 ± 0.1. The matching figures for UUAUAGCAAUAUUACGAACA: -1.51 ± 0.19 and -0.83 ± 0.17. The corresponding values for CGCAAGCAAUAUUACGUCGU are -3.27 ± 0.13 and -2.2 ± 0.1. In the case of CGUUAGCAAUAUUACGUAAU, the “self-splicing fitness (ln)” value runs as follows: (30 °C) -2.88 ± 0.24; (37 °C) -1.63 ± 0.25.

On to ACAAAGCAAUAUUACGAUGA, for which the “self-splicing fitness (ln)” value was -0.411 ± 0.048 (30 °C) and -0.201 ± 0.058 (37 °C). On to GGAGAGCAAUAUUACGUUUA, for which the “self-splicing fitness (ln)” value runs as follows: (30 °C) -3.83 ± 0.33; (37 °C) -2.03 ± 0.17. The corresponding values for CCCCAGCAAUAUUACGACCA are -2.81 ± 0.18 and -1.43 ± 0.16. Take CGCAAGCAAUAUUACGAUAC: the “self-splicing fitness (ln)” value (30 °C) is -2.51 ± 0.17 and the “self-splicing fitness (ln)” value (37 °C) was -2.58 ± 0.33. As for UUACAGCAAUAUUACGUCUC, the “self-splicing fitness (ln)” value by setting is: (30 °C) -2.98 ± 0.28; (37 °C) -2.3 ± 0.22. On to UAGUAGCAAUAUUACGGUGC, for which the “self-splicing fitness (ln)” value is, setting by setting: (30 °C) -3.13 ± 0.17; (37 °C) -2.39 ± 0.19.

In the case of UGGAAGCAAUAUUACGGCGA, the “self-splicing fitness (ln)” value is -0.779 ± 0.12 (30 °C) and -0.28 ± 0.16 (37 °C). The matching figures for GCUCAGCAAUAUUACGCUAG: -1.03 ± 0.075 and -0.659 ± 0.11.

Regarding CAGGAGCAAUAUUACGGCUU, the “self-splicing fitness (ln)” value was -3.93 ± 0.23 (30 °C) and -2.15 ± 0.21 (37 °C). On to UGGAAGCAAUAUUACGGUUG, for which the “self-splicing fitness (ln)” value runs as follows: (30 °C) -1.46 ± 0.1; (37 °C) -0.621 ± 0.13.

Turning to GAUUAGCAAUAUUACGGCCA, the “self-splicing fitness (ln)” value was -1.41 ± 0.19 (30 °C) and 0.41 ± 0.21 (37 °C). The matching figures for GAGCAGCAAUAUUACGCGGC: -3.97 ± 0.25 and -1.87 ± 0.14. The matching figures for GCCAAGCAAUAUUACGGUUC: -2.61 ± 0.16 and -0.763 ± 0.12. As to CUGCAGCAAUAUUACGGGGG, the “self-splicing fitness (ln)” value (30 °C) was -2.95 ± 0.18 and the “self-splicing fitness (ln)” value (37 °C) is -2.6 ± 0.21. Take CUGCAGCAAUAUUACGGGUC: the “self-splicing fitness (ln)” value (30 °C) was -3.51 ± 0.23 and the “self-splicing fitness (ln)” value (37 °C) is -3.07 ± 0.31. Consider AUCUAGCAAUAUUACGGCGA, for which the “self-splicing fitness (ln)” value reads like this: (30 °C) -0.505 ± 0.14; (37 °C) -0.448 ± 0.16. Turning to CGCGAGCAAUAUUACGACGA, under “37 °C”, the “self-splicing fitness (ln)” value was -0.89 ± 0.35.

UAAAAGCAAUAUUACGCGUG: the “self-splicing fitness (ln)” value is -0.88 ± 0.049 (30 °C) and -0.0179 ± 0.066 (37 °C). Take CUCCAGCAAUAUUACGACAG: the “self-splicing fitness (ln)” value is -1.4 ± 0.14 (30 °C) and -0.3 ± 0.14 (37 °C). In the case of CGCGAGCAAUAUUACGUAAA, the “self-splicing fitness (ln)” value (30 °C) is -3.8 ± 0.19 and the “self-splicing fitness (ln)” value (37 °C) is -2.78 ± 0.15. Consider GAGGAGCAAUAUUACGAUUU, for which the “self-splicing fitness (ln)” value by setting is: (30 °C) -1.07 ± 0.1; (37 °C) -0.084 ± 0.13.
